The values that follow come from patent publication EP4772613A1 (GI Cell, Inc., dated 2026).

The target in experiment [1] is T1, IL-2Rβ-his (Acro CD2-H5221) (UniProt P14784 27-239).
T1 construct: also called CD122; not shown: his tag
T1 sequence (looked up): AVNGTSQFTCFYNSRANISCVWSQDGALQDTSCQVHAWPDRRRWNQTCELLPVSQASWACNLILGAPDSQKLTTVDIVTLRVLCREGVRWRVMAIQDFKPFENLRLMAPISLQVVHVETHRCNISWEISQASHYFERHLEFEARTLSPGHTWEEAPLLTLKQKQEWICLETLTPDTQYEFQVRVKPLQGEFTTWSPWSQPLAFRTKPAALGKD
In words: Octet BLI; IL-2Rβ-his on Ni-NTA sensor, analyte 2,000 to 31.25 nM. On the technique in general: BLI is a label-free optical method that tracks binding on a fibre tip over time.

Experiment [2] deals with T2, IL-2Rβ and common γ chain on HEK-Blue CD122/132 cells (InvivoGen hkb-il2bg) (UniProt P14784 27-551; P31785 23-369, limits assumed).
T2 sequence (looked up) 1: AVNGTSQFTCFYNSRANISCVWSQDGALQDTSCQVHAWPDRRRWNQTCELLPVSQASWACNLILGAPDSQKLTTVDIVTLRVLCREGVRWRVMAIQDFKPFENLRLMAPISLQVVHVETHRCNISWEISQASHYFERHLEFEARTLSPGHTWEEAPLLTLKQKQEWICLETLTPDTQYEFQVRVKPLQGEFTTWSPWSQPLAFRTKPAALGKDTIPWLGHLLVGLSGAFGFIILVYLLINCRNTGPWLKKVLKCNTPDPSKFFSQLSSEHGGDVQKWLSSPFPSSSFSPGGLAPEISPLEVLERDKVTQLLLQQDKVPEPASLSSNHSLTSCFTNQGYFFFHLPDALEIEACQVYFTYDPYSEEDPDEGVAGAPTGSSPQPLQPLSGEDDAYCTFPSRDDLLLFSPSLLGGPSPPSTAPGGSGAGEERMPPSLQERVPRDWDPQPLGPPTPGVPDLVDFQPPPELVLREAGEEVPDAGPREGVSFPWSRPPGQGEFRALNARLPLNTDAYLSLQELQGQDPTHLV
T2 sequence (looked up) 2: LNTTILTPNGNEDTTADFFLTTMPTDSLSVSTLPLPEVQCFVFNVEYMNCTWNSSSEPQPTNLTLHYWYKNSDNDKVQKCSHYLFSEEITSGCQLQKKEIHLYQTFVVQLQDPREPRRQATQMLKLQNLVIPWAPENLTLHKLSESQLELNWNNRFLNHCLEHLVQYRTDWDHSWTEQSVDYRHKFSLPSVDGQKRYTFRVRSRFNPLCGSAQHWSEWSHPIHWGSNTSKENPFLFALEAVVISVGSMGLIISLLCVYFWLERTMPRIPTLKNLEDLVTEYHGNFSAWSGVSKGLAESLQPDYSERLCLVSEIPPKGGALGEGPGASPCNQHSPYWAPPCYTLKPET
In words: cell-based or functional assay.

B1: GIC-982C15 (IL-2/IL-15v8) (S76K) (Fc fusion)
chain: GSAESKYGPPCPPCPAPEAAGGPSVFLFPPKPKDQLMISRTPEVTCVVVDVSQEDPEVQFNWYVDGVEVHNAKTKPREEQFNSTYRVVSVLTVLHQDWLNGKEYKCKVSNKGLPSSIEKTISKAKGQPREPQVYTLPPSQEEMTKNQVSLTCLVKGFYPSDIAVEWESNGQPENNYKTTPPVLDSDGSFFLYSRLTVDKSRWQEGNVFSCSVLHEALHNHYTQKSLSLSLGGGGGSGGGGSITCPPPMSVEHADIWVKSYSLYSRERYICNSGFKRKAGTSSLTECVLNKATNVAHWTTPSLKCIRGGGGSGGGGSGGGGSGGGGSAPTSSSTKKTQLQLEHLLLDLQMILNGSMHIDATLYTESDVHPSCKVTAMKCFLLELQVISLESKNFHLRPRDLIKNINVIVLELKGSNGNVTESGCKECEELEEKNIVEFLNRWITFCQSIISTLT
B1: in experiment [1], binding was put at a Kd of 178 nM, the koff is 0.000476 s⁻¹ and the association rate constant (kon) worked out at 2670 M⁻¹ s⁻¹. Moreover, the “EC50 (ng/ml), STAT5 activity, HEK-Blue CD122/132 reporter cells” value in experiment [2] was determined as 134 ng/mL.

In general, Kd refers to the equilibrium constant for the complex coming apart. The low end stands for higher affinity, the high end for lower affinity. The term koff denotes the first-order rate constant of dissociation. A low value points to a long-lived complex. Broadly, the kon is the second-order rate constant of association. The low end stands for slower complex formation, the high end for faster complex formation.
